Test results as given in the DeepSol protein solubility set.

Test: soluble on expression in E. coli; label from the status in PepcDB or PDB records

Q: Which “soluble on expression in E. coli” value does the source give for “MMGFEWGFKPSSKITQSTVSSQGTGNVMIPTAGVKQKRRYANEEQEEEELPRNKNVMKYGGVSKRRPQPGSLIRGQPLPLQRGMELMNKNQLQQLLVDLMTKHPEIQQSVHTRVIGLDFSIQKCLDMLKQKSEAVYQSIPYNRSYESNKLDDYAFVRMKPQILEFLNCLVDFILDNIPPRLENLHASLKFLDICTELVIKLPRFELASNNYYYDKCIEQLSHVWCTLIEHVARDRIILLADNSSVWKSHMTRLQVYNEHSNGLLERPLQLFKSLDMGSPSAASSSTLSLQESIIYHHDTMTANENNNNSGSAATDSPFN” here?
A: The value was “soluble”.

Q: With “MGSDKIHHHHHHMSDVVLNKGIVIEQLRYGHGNDVLVVDAWQLGTAEHWAIFATDSYSGSLLGRILSGDITPDQGIITGLPQRIGWVSLGQQQALLARELAKDELDYGSSVELLVLECCQGAQQLGPLLQQVGLEHLRLRGFRQLSTGETRRVMLARALAMQPQLLILDDPYAGLDCEHQESLSQLLDEVAKNCQLLLITSRQEELPECISHVALFNTEMLQSGQSIHKLSLPMSIKEWHSHPIMAQLHALSAQRSDELLALLVRQRHKVEDFDPLVEIKNGKVEYVSGLIFSGVNWRIEAGQHWQVRGPNGCGKSTLLGLILGDHPQCYSNDITLFGRPRGSGESIWEIKQRIGIVSSALHLQYRVSCSALDVLLSGFFDSIGLYHKPTKLQHDLAKEWLAILHMSELAHISFKQLEYGQQRLLLIGRALIKKPLLLILDEPYQGLDFINRTLVMRTLEMIAHHHLSQLLYVSHHREDALPSIKHFIDFVRQGDGYSVQVSHL” as the sequence, how does the “soluble on expression in E. coli” value read?
A: Its value is “not soluble”.

Q: With “MGLSVMIMLMRSVKIKYLNLASLSNDRSADTSAAPHSPLRTRLVHPSLAFCPDVPSGKCRFAKFYGIGREPHRIRGADVLLFEGLKRVR” as the sequence, how does the “soluble on expression in E. coli” value read?
A: Its value is “not soluble”.

Q: Which “soluble on expression in E. coli” value does the source give for “MVDGNYSVASNVMVPMRDGVRLAVDLYRPDADGPVPVLLVRNPYDKFDVFAWSTQSTNWLEFVRDGYAVVIQDTRGLFASEGEFVPHVDDEADAEDTLSWILEQAWCDGNVGMFGVSYLGVTQWQAAVSGVGGLKAIAPSMASADLYRAPWYGPGGALSVEALLGWSAKIGTGLITSRSDARPEDAADFVQLAAILNDVAGAASVTPLAEQPLLGRLIPWVIDQVVDHPDNDESWQSISLFERLGGLATPALITAGWYDGFVGESLRTFVAVKDNADARLVVGPWSHSNLTGRNADRKFGIAATYPIQEATTMHKAFFDRHLRGETDALAGVPKVRLFVMGIDEWRDETDWPLPDTAYTPFYLGGSGAANTSTGGGTLSTSISGTESADTYLYDPADPVPSLGGTLLFHNGDNGPADQRPIHDRDDVLCYSTEVLTDPVEVTGTVSARLFVSSSAVDTDFTAKLVDVFPDGRAIALCDGIVRMRYRETLVNPTLIEAGEIYEVAIDMLATSNVFLPGHRIMVQVSSSNFPKYDRNSNTGGVIAREQLEEMCTAVNRIHRGPEHPSHIVLPIIKRKLAAALEHHHHHH” here?
A: Its value is “soluble”.

Q: With “MKRIGIDVGGTNTDAVLIDGDTIVASIKVPTTQDVLSGVKAALAHVAGHVGAADRPIDAVMIGTTHFTNAVVERARLERVAALRIALPTGSSLPPMCDWPKDLHDAVDPLIFMVHGGHEYDGSPLVPMIPDEIREAAMKIRDAGITSIAISATFSPLTTECEVRAAEIVRSVIPDARITLSHTLGRIGLLERENVALLNAALQTLGKTTVQAFSDALREAGVKAPFYLTQNDGTVSLADVAAANPVHSFASGPTNSMRGAAFLTGLSDAMVVDVGGTTSDIGCLVGGFPREANNIVHIGGVRTLFRMPDLLPIALGGGTIVDPETGKIGPRSVGYRILTEARVFGGETLTTSDIAVAAGLIEIGDRDRVKDLDSTFVQATLQRIRNMVADSFDQMKTSAEDVPLVAVGGGAFLIPETVPGASDVLRVENAGVANALGAAMAQVSGEVDQVFSGLSRDEALAKAETEAQNAAVASGAERTSLKTLEVEDIPIAYLPGGARRVRVRVIGDIAFHLEHHHHHH” as the sequence, how does the “soluble on expression in E. coli” value read?
A: The value was “not soluble”.

Q: For “MGSDKIHHHHHHMETSEILKKVRQIEIKTRGLSNNIFAGQYHSAFKGRGMSFSEVREYQFGDDIRDIDWNVTARFNKPYVKVFEEERELTVMLMVDVSGSLEFGTVKQLKKDMVTEIAATLAFSAIQNNDKIGVIFFSDRIEKFIPPKKGRKHILYIIRELIDFQPESRRTNIRLALEYLTNVMKRRCTAFILSDFIDQDNFKNALTIANRKHDVVALQVYDRRVSDLPPVGLMRIKDAETGHEQWIDTSSKAVRRAHRDWWINKQTELNDTFTKSNVDSVSVRTDQDYVKALLNLFAKRN”, which “soluble on expression in E. coli” value is on record?
A: The value was “not soluble”.

Q: For “MSKSEEKQELPLETSPYTKYEDIEDYKKNAYGTSGHQDVKPGHGGGTTDAPTPSGDAAPSAIDSANQKAKK”, which “soluble on expression in E. coli” value is on record?
A: The value was “soluble”.

Q: With “MGSDKIHHHHHHMSICIKDQIQNMNIVIGCTVGCAYCYARNNVKRWHMIDDFAAPEFFPGKLKMMEKKRPQNFLLTGMSDLSGWKPEWRNVVFAKIRENPQHQFLFLTKRPDLLDFDTDLENAWFGVTVTRKAELWRIDALRKNVRAKHYHVTFEPLFDDPGTVDLSGINWIVVGTMTGAQSRKIHTEPEWAWSLADQAHKLGIPVFMKEDIVPIIGDENMIQEMPEEFNKVLEVQKSWKK” as the sequence, how does the “soluble on expression in E. coli” value read?
A: Its value is “not soluble”.

Q: With “MGSDKIHHHHHHMTLMKPADVSQRQSTSVLHSSSHSPSQNHLLAALPQVELESFSDHLELVPMPLGEFLYEPGSGLEYVYFPTTCIVSLHYVLSSGATAETAGVGNEGVVGVSLFMGGNTTASSAVVQTAGYGYRLNKKILMREFDRSGLLQRVLLRYTQALMTQMSQTAVCNRHHSLEQQFCRWLLLTLDRMPTNELVMTHELVASMLGVYREGISLAAGKLQQAGVISYRRGHISVLDRAKLELKSCECYQVVKTELDRLLSDGLLADAKFIKTKTDTQTSKTQ” as the sequence, how does the “soluble on expression in E. coli” value read?
A: The value was “not soluble”.

Q: For “MVSTTQSRSLKAMGEEIWKNKTEKINTELFTLTYGSIVAQLCQDYERDFNKVNDHLYSMGYNIGCRLIEDFLARTALPRCENLVKTSEVLSKCAFKIFLNITPNITNWSHNKDTFSLILDENPLADFVELPMDAMKSLWYSNILCGVLKGSLEMVQLDCDVWFVSDILRGDSQTEIKVKLNRILKDEIPIGED”, which “soluble on expression in E. coli” value is on record?
A: Its value is “soluble”.

Q: Which “soluble on expression in E. coli” value does the source give for “MIYSMTAFAHLELKKEWGNAVWEMRSVNQRFLETYFRLPEQFRHLEMSLRERLRSALTRGKVECSLRIELTNSQDKELSLNKDYAEKVIGSLQTLQALAGGGQINLVDLLRYPGVVDSQTQDLDQIGQDLCAGFEEILADFIAMRAREGANLQQLIQQRLDSISKIATQVQAQMPAILQWQKEKLQQRFDELNLQLESQRLEQEIVLTAQRVDVAEELDRLQLHVKETMAILQRGGAVGRKLDFMMQELNRESNTLASKSINADVTNSAVELKVLIEQMREQIQNLE” here?
A: The value was “not soluble”.

Q: Which “soluble on expression in E. coli” value does the source give for “NALRRDPNLPVHIRGWLHKQDSSGLRLWKRRWFVLSGHCLFYYKDSREESVLGSVLLPSYNIRPDGPGAPRGRRFTFTAEHPGMRTYVLAADTLEDLRGWLRALGRASRAEGDDYGQPRSPAR” here?
A: The value was “soluble”.

Q: With “MGTILDKIVNQKKKEVAALYETYTPVKEKRKTRSLVKALEQFTVIAEVKRASPSKGDINLHVDVRKQVKTYEECGAGAVSVLTDGQFFKGSFYDLQTAREESSIPLLCKDFIIDKIQIDRAYEAGADIILLIVAALTKEKLKELYSYVLEKGLEAIVEVHDEQELEIAIQLNPHVIGINNRNLKTFEVDLSQTEKLGKRLNEEKLLWISESGIHSKEDIIRVKRAGAKGVLVGEALMTSSSIHTFFEDCKVNI” as the sequence, how does the “soluble on expression in E. coli” value read?
A: Its value is “not soluble”.

Q: With “GMEAKLSSIEIPVGQDELSGTLLTPTGMPGVLFVHGWGGSQHHSLVRAREAVGLGCICMTFDLRGHEGYASMRQSVTRAQNLDDIKAAYDQLASLPYVDAHSIAVVGLSYGGYLSALLTRERPVEWLALRSPALYKDAHWDQPKVSLNADPDLMDYRRRALAPGDNLALAACAQYKGDVLLVEAENDVIVPHPVMRNYADAFTNARSLTSRVIAGADHALSVKEHQQEYTRALIDWLTEMVVGRRIALAKEVVAARKQLLKEQQGDAVSLPGQGSREFRGDIRAVEKTSA” as the sequence, how does the “soluble on expression in E. coli” value read?
A: Its value is “soluble”.

Q: Which “soluble on expression in E. coli” value does the source give for “MFERYQAGEQAVLVHLDFPDESSREDLSEFKMLVSSAGVQALTVVTGKRNTPHPRFFVGSGKAEEIRDAVHLVGANVVLFNHSLTPSQEKNIEALCECRVVDRTTLILDIFAQRARTHEGKLQVELAQLRHMSSRLIRGWTHLERQKGGIGLRGPGETQLETDRRLLRERMVNIRKRLGKVEVQRQQGRRARTRAELPTLSLVGYTNAGKSTLFNTLTQSDVYAADQLFATLDPTLRKIDLFGVGRVILADTVGFIRHLPHDLVAAFKATLTETREAELLLHVVDISDDRRSENIEQVEYVLKEIEANDVPQLIICNKIDNLDDIEPRIDRDDQGMPIRVWLSAQANIGTELLFTALAERLDIQVVNHQLSIPPSAGKLRGELYKLNCVTSETYDEQGHCHLEVNMPSREWERLISTKYSELVDYIEHLEHHHHHH” here?
A: The value was “not soluble”.

Q: For “SEFKVTVCFGRTRVDVPCGDGRMKVFSLIQQAVTRYRKAVAKDPNYWIQVHRLEHGDGGILDLDDILCDVADDKDRLVAVFDEQD”, which “soluble on expression in E. coli” value is on record?
A: Its value is “soluble”.

Q: For “MAAKPGIPKGTRDFSPVEMAKRNYIFNTIRDVFHLFGYQQIETPSMENLSTLMGKYGDEGDKLLFKIQNSGDYFNGITDEELLSRNAVKLASKFCEKGLRYDLTVPFARYVVMHRDEISFPFKRYQIQPVWRADRPQKGRYREFYQCDADVVGSNSLLNEVELVQMIDRVFGKFGVRVSIKINNRKILTGIAEIIGEADKIVDITVAIDKLDKIGLENVNAELASKGIPQEAIDKLQPIILLSGSNEEKLETLKTVLATSEAGLKGVEESEFILKTVSALGVKSEVELDLTLARGLNYYTGAIFEVKALDVQIGSISGGGRYDNLTGVFGMDGMSGVGISFGADRIFDVLNQLDLYPKEAVNGTELLFVNFGDKEAAYCLPILTKVREAGVRAEIYPDASKMKKQMGYANDKQIPFVAIVGENEMNEGKLTLKNMTTGEQSLVTPDELLAVVKA”, which “soluble on expression in E. coli” value is on record?
A: Its value is “not soluble”.

Q: Which “soluble on expression in E. coli” value does the source give for “CPRMGHVFPLETRPYNQGSRLTAYELVYDKIPSTLITDSSIAYRIRTSPIPIKAAFVGADRIVRNGDTANKIGTLQLAVICKQFGIKFFVVAPKTTIDNVTETGDDIIVEERNPEEFKVVTGTVINPENGSLILNESGEPITGKVGIAPLEINVWNPAFDITPHELIDGIITEEGVFTKNSSGEFQLESLF” here?
A: Its value is “soluble”.

Q: With “GFKVIMVTDVGGLGDKSFNDGTWAGIKQAAEELGIEAKVIQSYEQSDYIPNLSKAAEEADLVFAVGFMMTNDLFKVAKQYPDTYFVGIDITPPEGQILPNVLTFTFKEQEAAFLVGYVAAAMTKTGMVGFVGGIPIPPVERFRYGYEAGIKTYSVLHKKNVKILRGYTQDFEDPKKGKDLAMSQFAEGADIVFHASGACGNGVIEAAREKFSALAGSDKLVDLIDYYTTNGKGFFAIGVDMDQDYMAPGAVLTSAMKRVD” as the sequence, how does the “soluble on expression in E. coli” value read?
A: Its value is “soluble”.

Q: With “MAHHHHHHMMAIRNMLRKIIIKHGKVANAVWVPKRFINMNPTGNEEKVTQERNKRDYILSLDEALYLSKEMGIKTTTEIQKIIMRSPPFSPDMSPFLIDNFLSSANKDRHSDEIDQIDLKLKELQERDSNPEESEQGEDEGAVENSKINISHDREENIINKILIDKFNKKRGKTFIHNDMEWLEESEGIGTNKRSCAYVYIKRGSGIVKVNDEEDLYIRWPYFYNRMDVLEPFYVTNTSCVFDVFIKLKGGGISGQSKAARLAIGRALLNACPLIYDDLQQHHILYEDMRQKFPKMPGRKKSRAMKQWSKR” as the sequence, how does the “soluble on expression in E. coli” value read?
A: The value was “not soluble”.

Q: For “GGGGGGMNLRRRGIVVSFHSNMVTVEDEETGERILCKLRGKFRLQNLKIYVGDRVEYTPDETGSGVIENVLHRKNLLTKPHVANVDQVILVVTVKMPETSTYIIDKFLVLAEKNELETVMVINKMDLYDEDDLRKVRELEEIYSGLYPIVKTSAKTGMGIEELKEYLKGKISTMAGLSGVGKSSLLNAINPGLKLRVSEVSEKLQRGRHTTTTAQLLKFDFGGYVVDTPGFANLEINDIEPEELKHYFKEFGDKQCFFSDCNHVDEPECGVKEAVENGEIAESRYENYVKMFYELLGRRKK”, which “soluble on expression in E. coli” value is on record?
A: The value was “soluble”.
